Experiments:
[1] = target: T1, cyno CD3e (Macaca fascicularis (cynomolgus monkey), UniProt Q95LI5); assay: kinetic Kd determination of the expressed scFv, method not named
T1 construct: not described; also called cynomolgus CD3ε; cynomolgus CD3
T1 sequence (CD3 epsilon, looked up): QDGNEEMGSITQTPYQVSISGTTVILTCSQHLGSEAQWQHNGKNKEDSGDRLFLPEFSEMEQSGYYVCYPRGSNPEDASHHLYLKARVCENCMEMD

[2] = target: T2, biotinylated hu-CD3ε (human, UniProt P07766 23-126, limits assumed, biotinylated (site not stated)); assay: as above
T2 construct: The construct is not described; also called biotin-CD3ε; human CD3ε
T2 sequence (P07766 23-126 limits assumed): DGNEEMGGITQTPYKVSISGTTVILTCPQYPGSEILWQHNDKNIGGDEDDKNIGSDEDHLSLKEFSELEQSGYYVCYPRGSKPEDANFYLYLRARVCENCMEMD

B1: Anti-CD3, clone 2G5 (scFv)
scFv: EVQLVESGGGLVQPGGSLKLSCAASGFTFNKYALNWVRQAPGKGLEWVARIRSKYNNYATEYADSVKDRFTISRDDSKNTAYLQMNNLKTEDTAVYYCVRHGNFGNSPISYWAYWGQGTLVTVSSGGGGSGGGGSGGGGSQTVVTQEPSLTVSPGGTVTLTCGSSTGAVTSGNYPNWVQQKPGQAPRGLIGGTNFLAPGTPERFSGSLLGGKAALTLSGVQPEDEAEYYCVLWYSNRWAFGGGTKLTVLHHHHHH
notes: Expressed in Expi293 from the pcDNA3.4 His6 vector
Kd [1]: 115 nM
koff [1]: 0.111 s⁻¹
kon [1]: 964000 M⁻¹ s⁻¹
Kd [2]: 117 nM
koff [2]: 0.115 s⁻¹
kon [2]: 994000 M⁻¹ s⁻¹

B2: Anti-CD3, clone 3F2 (scFv)
scFv: EVQLVESGGGLVQPGGSLKLSCAASGFTYNKYAMNWVRQAPGKGLEWVARIRSKYNNYATYYADEVKDRFTISRDDSKNTAYLQMNNLKTEDTAVYYCVRHGNFGNSPISYWAYWGQGTLVTVSSGGGGSGGGGSGGGGSQTVVTQEPSLTVSPGGTVTLTCGSSKGAVTSGNYPNWVQQKPGQAPRGLIGGTKELAPGTPARFSGSLLGGKAALTLSGVQPEDEAEYYCTLWYSNRWVFGGGTKLTVLHHHHHH
notes: as for B1
Kd [1]: 6.6 nM
koff [1]: 0.00438 s⁻¹
kon [1]: 712000 M⁻¹ s⁻¹
Kd [2]: 8 nM
koff [2]: 0.00502 s⁻¹
kon [2]: 704000 M⁻¹ s⁻¹

B3: Anti-CD3, clone 10E4 (scFv)
scFv: EVQLVESGGGLVQPGGSLKLSCAASGFTFNKYPMNWVRQAPGKGLEWVARIRSKYNNYATYYADSVKDRFTISRDDSKNTAYLQMNNLKNEDTAVYYCVRHGNFNNSYISYWAYWGQGTLVTVSSGGGGSGGGGSGGGGSQTVVTQEPSLTVSPGGTVTLTCGSSTGAVTKGNYPNWVQQKPGQAPRGLIGGTKMLAPGTPARFSGSLLGGKAALTLSGVQPEDEAEYYCALWYSNRWVFGGGTKLTVLHHHHHH
notes: as for B1
Kd [1]: 46.8 nM
koff [1]: 0.0238 s⁻¹
kon [1]: 508000 M⁻¹ s⁻¹
Kd [2]: 49.8 nM
koff [2]: 0.026 s⁻¹
kon [2]: 522000 M⁻¹ s⁻¹

B4: Anti-CD3, clone 6A2 (scFv)
scFv: EVQLVESGGGLVQPGGSLKLSCAASGFMFNKYAMNWVRQAPGKGLEWVARIRSKSNNYATYYADSVKDRFTISRDDSKNTAYLQMNNLKTEDTAVYYCVRHGNFGNSYISYWATWGQGTLVTVSSGGGGSGGGGSGGGGSQTVVTQEPSLTVSPGGTVTLTCGSSFGAVTSGNYPNWVQQKPGQAPRGLIGGTKLLAPGTPARFSGSLLGGKAALTLSGVQPEDEAEYYCVLWYSNSWVFGGGTKLTVLHHHHHH
notes: as for B1
Kd [1]: 4.9 nM
koff [1]: 0.00222 s⁻¹
kon [1]: 456000 M⁻¹ s⁻¹
Kd [2]: 4.7 nM
koff [2]: 0.00248 s⁻¹
kon [2]: 522000 M⁻¹ s⁻¹

Reference: patent US20240084009A1 (HARPOON THERAPEUTICS, published 2024)
